± gives the uncertainty stated by the source.
Assay: amyloid nucleation score (Sup35N fusion, yeast selection) (log enrichment); library NNK2; higher = more nucleation; inactive = no reads after selection
How it was run: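 Peptides of 20 random codons, each fused to Sup35N, were expressed in psi-negative yeast. Cells were induced with 100 μM copper sulfate for 24 hours and grown 7 days at 30°C on medium lacking adenine and uracil, and plasmid inserts before and after selection were Illumina-sequenced. Nucleation scores are DiMSum log enrichments of output over input reads, centred on the mode score of non-aggregating sequences, and sequences under 100 input reads were excluded.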

Row | Substance | amyloid nucleation score
1 | HLRWARRIGVCTVFYLSRIC | 0.483 ± 0.57
2 | GDKYICELHWRFLGQNSVW | 4.07 ± 0.11
3 | SNFCFSTR | 0.328 ± 0.32
4 | ARDNQMARDI | 2.83 ± 0.15
5 | QIVIWVRLYFNVFSRSRSRV | 1.05 ± 0.36
6 | VKLEMD | -0.617 ± 0.21
7 | SIFFC | 2.09 ± 0.09
8 | VTIER | 0.319 ± 0.33
9 | VRITVSSSLALWLVWLSHYR | -0.167 ± 0.27
10 | ARTSLCESTWPTNVRIGPKS | 0.498 ± 0.64
11 | FRLSHFILVSHYLNNYEDSF | inactive
12 | LHWFMVEDH | 0.19 ± 0.42
13 | YCTSRVTTRSFISDCLTWIR | 1.97 ± 0.069
14 | MCCYVSCQ | 2.55 ± 0.12
15 | YQGMFKFRRFDNVSVVHAMR | -0.359 ± 0.76
16 | CSKDMSQKLVYRLWSIIVMA | -0.542 ± 0.33
17 | RDRFS | 0.248 ± 0.61
18 | FSLICIKIHEKGWQGEG | 4.17 ± 0.065
19 | WFRRQSLGWVRANGPVMRIS | 0.035 ± 0.34
20 | LMHWV | -0.94 ± 0.38
21 | RRWTHKEPIKASLVRRFLRV | inactive
22 | VLWLADLSR | 0.113 ± 0.8
23 | VLIFRAMIFDDKALVGMKD | -0.521 ± 0.45
24 | FSVLMEDHSRFIF | inactive
25 | LSIVKFI | 1.3 ± 0.12

Row | Substance | amyloid nucleation score
26 | ARNPDFRCDSASI | -0.146 ± 1
27 | KFFMDYNGILDFWFRTREKD | -0.375 ± 0.74
28 | FCILSWGLSVRYSRVPLNYK | 1.14 ± 0.18
29 | FWGGKNYI | -1.5 ± 0.75
30 | ILISVRNYIKSEKSRNSYHK | 7.673 ± 0.03
31 | LAAWLWYTWKG | 0.589 ± 0.66
32 | VQVVLNSETSSCASLRCMTY | 8.047 ± 0.029
33 | MLCRMSAFRLGMRYDTRFLL | -0.064 ± 1.1
34 | TNISMLNDVGEGCFGERSLV | -0.291 ± 0.54
35 | FFVPYDSYTYHLILFLKQLV | -0.535 ± 0.53
36 | AFLSLFNSYWYFVFAKLF | -0.558 ± 0.74
37 | IITYVLLFNKFNTGVCE | 7.393 ± 0.049
38 | FGYAVVQRYYKWWIAMNTQA | -0.04 ± 0.42
39 | YYFNVLFSCYEEWFMFSSTS | inactive
40 | SRCGLLMVSPNAVPSGLAHR | 1.18 ± 0.31
41 | YSIIFWCFKWYLIQGWLECA | inactive
42 | VKYVIIEHFNWSVSCCAYLR | 1.37 ± 0.23
43 | TWKVDF | inactive
44 | GVGRWIQCQDSWNTNRPSQP | 1.52 ± 0.27
45 | YYLTT | -1.6 ± 1
46 | KALCLYNVVRKKRCT | 0.152 ± 0.5
47 | LVGDLVVGYGMCRKGVVR | 5.03 ± 0.079
48 | SSTHVPLRVFHGEIMWQQIL | -0.291 ± 1.1
49 | FFFNYLSCLRNAVNWFNRGM | inactive
50 | IPFASLNEFTSATY | 3.07 ± 0.1

Row | Substance | amyloid nucleation score
51 | SVVEEKIGEFTWSWDTDSAN | 0.568 ± 0.66
52 | YFMSRRE | -0.04 ± 0.45
53 | CDCWYFKC | 5.42 ± 0.095
54 | ELSRAGYEWCLGSHTSLVSS | 0.836 ± 0.32
55 | RSLYVVFWIAGFEWGEIRVA | 0.822 ± 0.26
56 | CLDPTDTMMRW | 0.82 ± 0.3
57 | VIMGFFGITFGWCKRSEVHE | 2.49 ± 0.11
58 | NWWESRAFGWYDSLSIFSYT | -0.469 ± 1.1
59 | LTHWI | -0.284 ± 0.23
60 | RIKYG | 4.05 ± 0.065
61 | GWVKTLEGLLMCLVVCNTVM | 2.98 ± 0.12
62 | IFIPSFWGIFTIPM | -1.01 ± 1
63 | PDPVPM | 0.632 ± 0.31
64 | MNWTSVHLDDWSRILIHTYC | inactive
65 | PPRYARFKSDLHSLHAVFGN | 5.57 ± 0.061
66 | VYTLIIDW | -1.44 ± 0.78
67 | LWDEVAGVAVKI | 3.3 ± 0.1
68 | NWVLVVGSSWEFLSGSASGG | 2.18 ± 0.17
69 | KGSGRSQLSSIVCVFFGQTV | -0.292 ± 0.49
70 | LAQSYVSYS | -1.45 ± 0.54
71 | AFCMDYAAQSAVTRSRDSCS | 0.909 ± 0.53
72 | DRCMFNYVIEVHVYSCVRFW | 4.67 ± 0.079
73 | RGRAFGPEIRNKSLGLTYPV | 0.282 ± 0.21
74 | TIFFMGM | 3.65 ± 0.07
75 | FSKHNSYGTNINNLFFSLLH | 6.19 ± 0.077

Row | Substance | amyloid nucleation score
76 | LGFDFSNVKRTGRVTFFDCM | -0.1 ± 0.35
77 | FASCRIVSRG | inactive
78 | LMYCI | -0.211 ± 0.76
79 | YAGWVGI | -0.387 ± 1.1
80 | FLVIVTVNLMYESQRMGSPV | inactive
81 | MKGNSSGVA | 1.25 ± 0.31
82 | TFFYMRFPGFLFSNSSNAW | 1.47 ± 0.24
83 | LSVDQSSSELSTDLFDFLHF | inactive
84 | TMFLYSNAEDFF | inactive
85 | WASFW | -0.725 ± 0.45
86 | FLMSTSLRSCICCVLLPSDN | 8.908 ± 0.032
87 | NGVRLNLVNFSFGLDVMPFR | 7.642 ± 0.071
88 | DEWQRGRTLSDTF | -0.295 ± 0.76
89 | CYMVRGYSFSNRWTAHGHEM | 2.51 ± 0.21
90 | AVPGVC | 0.72 ± 0.26
91 | MVRDIEFTLKGRTMG | -0.032 ± 1.1
92 | YLQYPYCSSKSFARDDLVKY | 0.173 ± 0.79
93 | ENLSQQMFWFKYAKVWGNVH | -0.724 ± 0.39
94 | VKQYYGSESNNGITFILRIA | 0.177 ± 0.38
95 | CRSATEPCVLSC | 0.56 ± 0.74
96 | YKVLTSPRFKEDPFLYGCWI | -0.353 ± 0.53
97 | TWGQVII | -0.465 ± 1
98 | YFSYPC | -1.82 ± 1
99 | IYYGGLKHARVPVTRFEGSP | 3.87 ± 0.098
100 | FRPHQVV | inactive

Row | Substance | amyloid nucleation score
101 | YYSFSGRATWGRNKSFMWVA | 0.089 ± 1.1
102 | KQGKRSTAHRSIVPLSFRH | 1.58 ± 0.14
103 | APTQDTLEFRHISFEVVWRT | 2.84 ± 0.18
104 | FDWISVRGTGWFCLRWWLYV | inactive
105 | WCNALFDWMLVAVCGGYYVY | -0.502 ± 0.37
106 | LADSAYTPY | -0.727 ± 0.54
107 | FFFNVSLHVRNFLEEVSVAS | inactive
108 | VKVGEISCFNFKEYTFLLTD | inactive
109 | PNRKSYLAYNMDSPT | -0.32 ± 0.24
110 | YIECFTSMQLP | -0.397 ± 0.79
111 | LLDACHLGNWTAGNGYYDRV | -0.531 ± 1.1
112 | PLRVRNNGGTVDKFLLRVFE | 0.489 ± 0.4
113 | ANLRNSW | -0.82 ± 0.56
114 | DRNPSGNSERPHVMPHPSVD | -0.146 ± 0.32
115 | CAWFLTRWTVLSDLEGFY | -1.35 ± 0.49
116 | KKVVLRPS | 4.97 ± 0.051
117 | ANQDGNCFGFISVGSQLSLM | 0.387 ± 0.8
118 | WCCLYDYFVDTGVLFIQDGS | -0.186 ± 0.2
119 | MGRDLLASDSTCVGRVQGKL | 0.965 ± 0.57
120 | IHSNEDFVRSESGVLDAYSV | -0.627 ± 0.42
121 | VFYVCFKLQIIDGMLNWCKG | 7.237 ± 0.032
122 | LGSDMRLRMTYCPKRCVRWH | 2.77 ± 0.14
123 | LTRQYNNRNPMSLRAIGYAF | inactive
124 | IVGHM | -0.5 ± 0.21
125 | KNFSCVN | 0.706 ± 0.74

Row | Substance | amyloid nucleation score
126 | RCYINFGIHGLWMLHVCFWG | -0.849 ± 1.1
127 | TLMFVKNFDVRCEWEASFTM | 5.37 ± 0.077
128 | VNGWDWQRYLRILKCFVVY | 0.615 ± 0.36
129 | VRLRGYSR | -0.439 ± 0.39
130 | CSLFLWGLMDLLV | inactive
131 | LRLFSFIVMGHNGVKHLVLC | 0.011 ± 0.8
132 | PGCSIDWILYRRTAYGTISD | -0.619 ± 0.36
133 | KGMNCVCACAINRPYSIVLQ | 1.41 ± 0.15
134 | DFNSDFAGLLLDTNKYYIHD | -0.088 ± 1.1
135 | MVYGLDFIGASL | -0.016 ± 0.5
136 | SRGSSMMQIYFL | 5.995 ± 0.059
137 | ACQPVWIESRFSLAERTRLS | 0.012 ± 1
138 | SERFDRAY | -1.2 ± 0.42
139 | CYVNWGCNGEISGIVFDSMK | inactive
140 | RGFRIVLINRCVILRSV | 0.198 ± 0.26
141 | YSLVLYWMWNCYRNRLDSGF | -0.185 ± 0.63
142 | FARGMVRSSTGTM | -1.88 ± 0.44
143 | DGVFRCKKRSSNFSDKSVCM | 0.641 ± 0.74
144 | AGRLLGNVGNWRANEGAGGD | -0.833 ± 1.1
145 | YADCVYDREPYTV | inactive
146 | SHCLNLGDLRVGYKSGM | inactive
147 | TCLSRVPPS | -0.797 ± 0.61
148 | SVFYHLYSHWIFIVCTNTRR | -0.414 ± 0.43
149 | PFCCLWFGLMHSSGVFRFMG | inactive
150 | WHQVRPARV | 1.17 ± 0.3

Row | Substance | amyloid nucleation score
151 | MDCRLV | 0.216 ± 0.51
152 | YFGSCPREKLGILYKELLVL | -0.563 ± 0.79
153 | FSVSSLVAVMNNTHLVVSGG | 2.34 ± 0.081
154 | WAKSFHTALWASLMRGRKLH | -0.44 ± 0.54
155 | GKCFIWCSMGIWLGVCDQSA | 3.59 ± 0.089
156 | CTLRAVMSIVRGYFRCYLVC | 0.255 ± 1.1
157 | MEKARTGGGSVTHDGKCARW | 0.649 ± 0.22
158 | HSVKCDSLGFLPFSTYWLRI | -0.047 ± 0.79
159 | LDFVQCILAVIQGSRDAAGA | 0.438 ± 0.64
160 | FRFPFFVQWFFCLSGSQRAR | inactive
161 | SREYHSCKCQMLYMSQWSKG | -0.787 ± 0.55
162 | GIYVEEWGHSVPALRWIDKS | 0.309 ± 0.8
163 | SNNMFWFLNYYVGIYMWISP | -1.21 ± 0.75
164 | LNNRLVFSKVHGCRICNRRS | inactive
165 | MSNRVCCNYVGSHVRYCVSK | 4.913 ± 0.048
166 | FSKIIHDSALVNISWMHDGS | 0.844 ± 0.56
167 | DRIGIRYWG | 1.34 ± 0.14
168 | FIADIVYLMNFGEIWG | 4.68 ± 0.1
169 | NRLYSNRGQLNSLCISWFSG | inactive
170 | ISNLQGFLLQNSDLAHSWVA | 1.28 ± 0.15
171 | TLDVGLGAAQCVIGISGWYE | 1.1 ± 0.15
172 | MKAHVVVTLSCRYNLYGAPH | 4.52 ± 0.054
173 | DYFFPWENSGCIRRSLTVG | -1.35 ± 0.41
